Patent US20240010735A1 (EISAI R AND D MANAGEMENT, published 2024)

Columns and labels:
Assay in all cases: ELISA: Fc-His proteins (1 nM) captured on anti-6-His antibody, antibody A 10 µg/mL with human IgG 100 µg/mL, HRP anti-mouse IgG, OD450 as % of mouse EphA4-Fc-His
[1] = molecular target: T1, mouse EphB3 extracellular region-Fc-His protein (mouse; human, UniProt P54754 30-554)
T1 construct: extracellular domain; not shown: Fc region of human IgG1; histidine tag
T1 sequence (looked up): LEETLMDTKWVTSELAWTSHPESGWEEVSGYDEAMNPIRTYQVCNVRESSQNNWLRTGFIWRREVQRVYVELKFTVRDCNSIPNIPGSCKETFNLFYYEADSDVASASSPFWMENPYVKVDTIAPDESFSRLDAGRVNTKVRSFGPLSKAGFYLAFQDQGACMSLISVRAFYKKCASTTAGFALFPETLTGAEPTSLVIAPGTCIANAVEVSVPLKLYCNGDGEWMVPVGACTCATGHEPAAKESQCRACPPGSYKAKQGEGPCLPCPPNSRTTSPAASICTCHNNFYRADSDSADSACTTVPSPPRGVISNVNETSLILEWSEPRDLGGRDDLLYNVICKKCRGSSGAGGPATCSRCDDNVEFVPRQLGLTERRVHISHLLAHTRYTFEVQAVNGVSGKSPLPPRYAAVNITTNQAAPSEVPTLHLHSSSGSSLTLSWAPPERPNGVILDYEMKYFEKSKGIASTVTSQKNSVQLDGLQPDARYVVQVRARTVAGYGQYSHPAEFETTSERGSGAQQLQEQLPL
Experimental: (§1) Rabbit anti-6-His antibodies (Bethyl Laboratories) were coated onto the wells of a 96-well plate (Nunc). After incubating at 4° C. overnight, the wells were blocked at room temperature for 1 hour by 1% Block Ace (DS Pharma Biomedical). After washing 3 times with 0.05% Tween 20/PBS (Thermo […]), each Eph receptor of mouse extracellular region-Fc-His protein (final concentration 1 nM) was seeded into each well, and incubated at room temperature for 1 hour. After washing 3 times, human IgG solution (100 μg/mL, Sigma) and antibody A (10 μg/mL) were supplemented to the wells, and incubated at room temperature for 1 hour. Horseradish peroxidase-labeled donkey anti-mouse IgG antibody (Jackson ImmunoResearch Laboratories) was added, and incubated at room temperature for 1 hour. After washing 3 times, TMBZ (3,3′,5,5′-tetramethylbenzidine, Sigma) solution was added to the wells, and upon confirmation of modest coloring, an equal amount of quenching solution (1 N H₂SO₄, Wako Pure Chemicals) was added to the wells, and absorbance at 450 nm was read by a microplate reader (PerkinElmer).

[2] = molecular target: T2, mouse EphB1 extracellular region-Fc-His protein (mouse; human, UniProt Q8CBF3 18-540)
T2 construct: extracellular domain; not shown: Fc region of human IgG1; histidine tag
T2 sequence (looked up): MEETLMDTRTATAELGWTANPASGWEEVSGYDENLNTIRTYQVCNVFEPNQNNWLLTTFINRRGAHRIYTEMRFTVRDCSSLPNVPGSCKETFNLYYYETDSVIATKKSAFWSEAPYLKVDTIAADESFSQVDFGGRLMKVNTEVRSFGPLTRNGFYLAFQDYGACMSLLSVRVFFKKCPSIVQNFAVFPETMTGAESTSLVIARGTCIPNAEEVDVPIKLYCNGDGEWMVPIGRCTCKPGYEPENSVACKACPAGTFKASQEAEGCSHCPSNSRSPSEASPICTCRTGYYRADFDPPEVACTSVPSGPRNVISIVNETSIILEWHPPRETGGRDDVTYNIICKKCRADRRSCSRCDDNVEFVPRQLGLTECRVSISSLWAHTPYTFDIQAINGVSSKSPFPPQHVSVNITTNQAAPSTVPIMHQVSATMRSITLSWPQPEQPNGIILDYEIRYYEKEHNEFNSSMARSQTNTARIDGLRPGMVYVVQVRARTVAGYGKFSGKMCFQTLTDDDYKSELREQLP
Experimental: as §1

[3] = molecular target: T3, mouse EphB6 extracellular region-Fc-His protein (mouse; human, UniProt O08644 33-591)
T3 construct: extracellular domain; not shown: Fc region of human IgG1; histidine tag
T3 sequence (looked up): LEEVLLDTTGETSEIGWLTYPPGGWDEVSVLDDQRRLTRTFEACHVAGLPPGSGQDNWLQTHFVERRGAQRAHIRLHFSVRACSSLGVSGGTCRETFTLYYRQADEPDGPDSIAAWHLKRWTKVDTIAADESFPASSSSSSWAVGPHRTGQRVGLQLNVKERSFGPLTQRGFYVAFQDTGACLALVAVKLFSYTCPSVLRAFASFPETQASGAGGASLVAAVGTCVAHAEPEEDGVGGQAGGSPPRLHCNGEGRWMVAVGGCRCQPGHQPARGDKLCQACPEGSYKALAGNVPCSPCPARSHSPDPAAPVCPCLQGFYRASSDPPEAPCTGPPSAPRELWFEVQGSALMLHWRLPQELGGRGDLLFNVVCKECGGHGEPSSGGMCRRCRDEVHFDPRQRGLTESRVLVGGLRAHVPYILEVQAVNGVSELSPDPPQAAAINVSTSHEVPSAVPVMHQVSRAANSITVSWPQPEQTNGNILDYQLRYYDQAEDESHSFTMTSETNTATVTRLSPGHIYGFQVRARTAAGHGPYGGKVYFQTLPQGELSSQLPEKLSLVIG
Experimental: as §1

Measured: binding result

B1: mouse anti-EphA4 monoclonal antibody (antibody A) (antibody, mouse IgG1, kappa, V domains shown)
VH: QVQLKQSGPSLVQPSQSLSITCTVSGFSLTRYGVHWVRQSPGKGLEWLGVIWRGGSTDYNAAFMSRLSITKDNSKSQVFFKMNSLQADDTAIYYCAKESLFGVYYDYGYYSMDYWGQGTSVTVSS
VL: DIQMTQSPSSLSASLGERVSLTCRASQEISGYLSWLQQKPDGTIKRLIYAASTLDSGVPKRFSGSRSGSDYSLTISSLESEDFADYYCLQYASYPLTFGAGTKLELKR
notes: purified from hybridoma supernatant
no binding (tested: 10 µg/mL): all assays above
